Experimental findings from patent US20210246166A1 (Bayer, published 2021) are described below.

Numbered stars: 1 amine (or outer) side, 2 acyl side, 3 side chain; on linkers, the order of the positions; unused ones are H or OH. Bridge positions count the residues as written; N and C are the ends. Square brackets hold non-standard residues; d marks the D form. Ends that are not written are not given here. Freidinger's Lactam = (2S)-2-[(3R)-3-amino-2-oxopyrrolidin-1-yl]-4-methylpentanoic acid (Freidinger's lactam), CC(C)C[C@@H](C(=O)[*:2])N1CC[C@@H](N[*:1])C1=O; X13 = (2S)‑2‑amino‑3‑(1-methylcyclopropyl)propanoic acid, CC1(C[C@H](N[*:1])C(=O)[*:2])CC1; X15 = (3S)‑2‑azaspiro(4.4)nonane‑3‑carboxylic acid, O=C([C@@H]1CC2(CCCC2)CN1[*:1])[*:2]; (R)‑Pyrrolidine‑3‑acetic acid = O=C(C[C@H]1CCN([*:1])C1)[*:2]; Ida = iminodiacetic acid, O=C(CN(CC(=O)[*:3])[*:1])[*:2]; Pro(3S,4R-methano) = O=C(O)[C@H]1NC[C@@H]2C[C@@H]21; Pro(cis-4-CF3) = O=C(O)[C@@H]1C[C@H](C(F)(F)F)CN1; Pro(4-spirocPr) = O=C(O)[C@@H]1CC2(CC2)CN1; Oic = O=C(O)[C@@H]1C[C@@H]2CCCC[C@@H]2N1; βPro(3R) = O=C([C@@H]1CCN([*:1])C1)[*:2]; tBuAla = CC(C)(C)C[C@H](N)C(=O)O; Pen = CC(C)(S)[C@H](N)C(=O)O; Sar = CNCC(=O)O

The chains are these.
B1: ((N-Me)G)-IC+SRSLP-(Oic)-I-(Pen)+IP-(Freidinger's Lactam)-OH (peptide)
peptide: [Sar]ICSRSLP[Oic]I[Pen]IP[Freidinger's Lactam]-OH
modifications: disulfide 3-11; N-terminus assumed
SMILES: CC[C@H](C)[C@H](NC(=O)CNC)C(=O)N[C@H]1CSSC(C)(C)[C@@H](C(=O)N[C@H](C(=O)N2CCC[C@H]2C(=O)N[C@@H]2CCN([C@@H](CC(C)C)C(=O)O)C2=O)[C@@H](C)CC)NC(=O)[C@H]([C@@H](C)CC)NC(=O)[C@@H]2C[C@@H]3CCCC[C@@H]3N2C(=O)[C@@H]2CCCN2C(=O)[C@H](CC(C)C)NC(=O)[C@H](CO)NC(=O)[C@H](CCCNC(=N)N)NC(=O)[C@H](CO)NC1=O
B2: aIC+SRS-((tBu)A)-P-((6S)-5-Azaspiro[2.4]heptane-6-carboxylic acid)-I-(Pen)+IPe-OH (peptide)
peptide: [dA]ICSRS[tBuAla]P[Pro(4-spirocPr)]I[Pen]IP[dE]-OH
modifications: disulfide 3-11; N-terminus assumed
SMILES: CC[C@H](C)[C@H](NC(=O)[C@@H](C)N)C(=O)N[C@H]1CSSC(C)(C)[C@@H](C(=O)N[C@H](C(=O)N2CCC[C@H]2C(=O)N[C@H](CCC(=O)O)C(=O)O)[C@@H](C)CC)NC(=O)[C@H]([C@@H](C)CC)NC(=O)[C@@H]2CC3(CC3)CN2C(=O)[C@@H]2CCCN2C(=O)[C@H](CC(C)(C)C)NC(=O)[C@H](CO)NC(=O)[C@H](CCCNC(=N)N)NC(=O)[C@H](CO)NC1=O
B3: aIC+SRS-((tBu)A)-P-((6S)-5-Azaspiro[2.4]heptane-6-carboxylic acid)-I-(Pen)+IPD-OH (peptide)
peptide: [dA]ICSRS[tBuAla]P[Pro(4-spirocPr)]I[Pen]IPD-OH
modifications: disulfide 3-11; N-terminus assumed
SMILES: CC[C@H](C)[C@H](NC(=O)[C@@H](C)N)C(=O)N[C@H]1CSSC(C)(C)[C@@H](C(=O)N[C@H](C(=O)N2CCC[C@H]2C(=O)N[C@@H](CC(=O)O)C(=O)O)[C@@H](C)CC)NC(=O)[C@H]([C@@H](C)CC)NC(=O)[C@@H]2CC3(CC3)CN2C(=O)[C@@H]2CCCN2C(=O)[C@H](CC(C)(C)C)NC(=O)[C@H](CO)NC(=O)[C@H](CCCNC(=N)N)NC(=O)[C@H](CO)NC1=O
B4: ((N-Me)G)-IC+SRS-((tBu)A)-P-((1S,2S,5R)-3-azabicyclo[3.1.0]hexane-2-carboxylic acid)-I-(Pen)+IPD-OH (peptide)
peptide: [Sar]ICSRS[tBuAla]P[Pro(3S,4R-methano)]I[Pen]IPD-OH
modifications: disulfide 3-11; N-terminus assumed
SMILES: CC[C@H](C)[C@H](NC(=O)CNC)C(=O)N[C@H]1CSSC(C)(C)[C@@H](C(=O)N[C@H](C(=O)N2CCC[C@H]2C(=O)N[C@@H](CC(=O)O)C(=O)O)[C@@H](C)CC)NC(=O)[C@H]([C@@H](C)CC)NC(=O)[C@@H]2[C@H]3C[C@H]3CN2C(=O)[C@@H]2CCCN2C(=O)[C@H](CC(C)(C)C)NC(=O)[C@H](CO)NC(=O)[C@H](CCCNC(=N)N)NC(=O)[C@H](CO)NC1=O
B5: AIC+SRS-((tBu)A)-P-((4-CF3)P)-IC+IPD-OH (peptide)
peptide: AICSRS[tBuAla]P[Pro(cis-4-CF3)]ICIPD-OH
modifications: disulfide 3-11; N-terminus assumed
SMILES: CC[C@H](C)[C@H](NC(=O)[C@H](C)N)C(=O)N[C@H]1CSSC[C@@H](C(=O)N[C@H](C(=O)N2CCC[C@H]2C(=O)N[C@@H](CC(=O)O)C(=O)O)[C@@H](C)CC)NC(=O)[C@H]([C@@H](C)CC)NC(=O)[C@@H]2C[C@H](C(F)(F)F)CN2C(=O)[C@@H]2CCCN2C(=O)[C@H](CC(C)(C)C)NC(=O)[C@H](CO)NC(=O)[C@H](CCCNC(=N)N)NC(=O)[C@H](CO)NC1=O
B6: ((N-Me)G)-IC+SRSLP-(Oic)-I-(Pen)+IP-((R)-Pyrrolidine-3-carboxylic acid)-OH (peptide)
peptide: [Sar]ICSRSLP[Oic]I[Pen]IP[βPro(3R)]-OH
modifications: disulfide 3-11; N-terminus assumed
SMILES: CC[C@H](C)[C@H](NC(=O)CNC)C(=O)N[C@H]1CSSC(C)(C)[C@@H](C(=O)N[C@H](C(=O)N2CCC[C@H]2C(=O)N2CC[C@@H](C(=O)O)C2)[C@@H](C)CC)NC(=O)[C@H]([C@@H](C)CC)NC(=O)[C@@H]2C[C@@H]3CCCC[C@@H]3N2C(=O)[C@@H]2CCCN2C(=O)[C@H](CC(C)C)NC(=O)[C@H](CO)NC(=O)[C@H](CCCNC(=N)N)NC(=O)[C@H](CO)NC1=O
B7: ((N-Me)G)-IC+SRS-((tBu)A)-P-((3S)-2-azaspiro[4.4]nonane-3-carboxylic acid)-I-(Pen)+IPD-OH (peptide)
peptide: [Sar]ICSRS[tBuAla]P[X15]I[Pen]IPD-OH
modifications: disulfide 3-11; N-terminus assumed
SMILES: CC[C@H](C)[C@H](NC(=O)CNC)C(=O)N[C@H]1CSSC(C)(C)[C@@H](C(=O)N[C@H](C(=O)N2CCC[C@H]2C(=O)N[C@@H](CC(=O)O)C(=O)O)[C@@H](C)CC)NC(=O)[C@H]([C@@H](C)CC)NC(=O)[C@@H]2CC3(CCCC3)CN2C(=O)[C@@H]2CCCN2C(=O)[C@H](CC(C)(C)C)NC(=O)[C@H](CO)NC(=O)[C@H](CCCNC(=N)N)NC(=O)[C@H](CO)NC1=O
B8: pIC+SRSLP-(Oic)-I-(Pen)+IP-(Ida)-OH (HCl salt) (peptide)
peptide: [dP]ICSRSLP[Oic]I[Pen]IP[Ida]-OH
modifications: disulfide 3-11; also: HCl salt
B9: ((N-Me)G)-IC+SRSLP-(Oic)-I-(Pen)+IP-((R)-Pyrrolidine-3-acetic acid)-OH (peptide)
peptide: [Sar]ICSRSLP[Oic]I[Pen]IP[(R)‑Pyrrolidine‑3‑acetic acid]-OH
modifications: disulfide 3-11; N-terminus assumed
SMILES: CC[C@H](C)[C@H](NC(=O)CNC)C(=O)N[C@H]1CSSC(C)(C)[C@@H](C(=O)N[C@H](C(=O)N2CCC[C@H]2C(=O)N2CC[C@H](CC(=O)O)C2)[C@@H](C)CC)NC(=O)[C@H]([C@@H](C)CC)NC(=O)[C@@H]2C[C@@H]3CCCC[C@@H]3N2C(=O)[C@@H]2CCCN2C(=O)[C@H](CC(C)C)NC(=O)[C@H](CO)NC(=O)[C@H](CCCNC(=N)N)NC(=O)[C@H](CO)NC1=O
B10: ((N-Me)G)-IC+SRS-((2S)-2-amino-3-(1-methylcyclopropyl)propanoic acid)-P-(Oic)-I-(Pen)+IPD-OH (peptide)
peptide: [Sar]ICSRS[X13]P[Oic]I[Pen]IPD-OH
modifications: disulfide 3-11; N-terminus assumed
SMILES: CC[C@H](C)[C@H](NC(=O)CNC)C(=O)N[C@H]1CSSC(C)(C)[C@@H](C(=O)N[C@H](C(=O)N2CCC[C@H]2C(=O)N[C@@H](CC(=O)O)C(=O)O)[C@@H](C)CC)NC(=O)[C@H]([C@@H](C)CC)NC(=O)[C@@H]2C[C@@H]3CCCC[C@@H]3N2C(=O)[C@@H]2CCCN2C(=O)[C@H](CC2(C)CC2)NC(=O)[C@H](CO)NC(=O)[C@H](CCCNC(=N)N)NC(=O)[C@H](CO)NC1=O

Chain of Recombinant human MASP2 enzyme (fragment corresponding to amino acids 297-686, C-terminal His Tag) (O00187 other isoform, or with tags, fused parts or gaps limits assumed): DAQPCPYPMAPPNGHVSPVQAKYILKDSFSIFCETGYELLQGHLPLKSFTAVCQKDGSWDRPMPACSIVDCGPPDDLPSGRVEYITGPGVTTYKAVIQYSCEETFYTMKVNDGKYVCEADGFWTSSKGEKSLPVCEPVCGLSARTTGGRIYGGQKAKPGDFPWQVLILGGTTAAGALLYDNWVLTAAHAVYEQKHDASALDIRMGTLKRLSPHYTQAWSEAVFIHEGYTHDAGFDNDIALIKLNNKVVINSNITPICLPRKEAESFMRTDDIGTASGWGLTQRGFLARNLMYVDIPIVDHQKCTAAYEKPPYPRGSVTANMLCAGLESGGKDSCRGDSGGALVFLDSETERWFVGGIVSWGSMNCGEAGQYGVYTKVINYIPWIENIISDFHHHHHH

One assay deals with T1, Recombinant human MASP1 enzyme (fragment corresponding to amino acids 297-699, C-terminal His Tag) (human, UniProt P48740 297-699).
T1 sequence: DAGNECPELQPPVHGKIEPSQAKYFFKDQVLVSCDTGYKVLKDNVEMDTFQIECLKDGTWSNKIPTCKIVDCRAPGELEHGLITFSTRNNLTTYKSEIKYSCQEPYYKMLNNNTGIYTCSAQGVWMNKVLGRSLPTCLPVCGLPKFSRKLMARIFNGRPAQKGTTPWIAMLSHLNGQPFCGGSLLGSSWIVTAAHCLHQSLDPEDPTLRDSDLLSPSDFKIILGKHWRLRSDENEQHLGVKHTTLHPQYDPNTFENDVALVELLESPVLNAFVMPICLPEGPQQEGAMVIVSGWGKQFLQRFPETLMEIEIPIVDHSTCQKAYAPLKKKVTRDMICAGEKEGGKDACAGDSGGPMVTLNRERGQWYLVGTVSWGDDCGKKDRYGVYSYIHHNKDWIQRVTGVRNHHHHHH
In words: cell-based or functional assay.
Regarding B1, the “human MASP1 IC50” value is 23 nM.
Same read-out and setting: as for B2, the figure is 4.4 nM; as for B3, 4.4 nM; as for B4, 6.6 nM.
The same measure, in the same setting: as for B5, the figure is 7.8 nM; as for B6, 28 nM.
Still for that read-out and setting: then B7, with 17.1 nM; and B8, with 7.5 nM.
In the case of B9, the “human MASP1 IC50” value stood at 6.78 nM.
Same read-out and setting: as for B10, the figure is 20 nM.

The next assay has as its target Recombinant human MASP2 enzyme (fragment corresponding to amino acids 297-686, C-terminal His Tag) (human, UniProt O00187 297-686). As to the kind of experiment: cell-based or functional assay.
B1: the “human MASP2 IC50” value amounted to 96 nM.
For B2, the “human MASP2 IC50” value came to 24 nM.
Turning to B3, the “human MASP2 IC50” value is 22 nM.
For the molecule B4, the “human MASP2 IC50” value turned out to be 104 nM.
Same read-out and setting: as for B5, the figure is 1000 nM; as for B6, 166 nM; as for B7, 261 nM.
Still for that read-out and setting: as for B8, the figure is 65 nM; as for B9, 116 nM.
The same measure, in the same setting: then B10, with 230 nM.
